Measured values as given in patent US20120219551A1.
Values joined by “and” are separate entries in the source; they are usually repeats but may differ in a detail not shown here. Equal values may be shown once.

Experiments:
[1] = target: FcγRIIIA (CD16A), F158 allotype (human) (UniProt P08637); test: BIAcore (as Table 27)
[2] = target: FcγRIIIA (CD16A), V158 allotype (human) (UniProt P08637); test: BIAcore (as Table 27)
FcγRIIB (CD32B) (human) [3] = target: FcγRIIB (CD32B) (human) (UniProt P31994); test: BIAcore (as Table 27)
Sequence of FcγRIIB (CD32B) (human) (P31994 43-217 limits assumed): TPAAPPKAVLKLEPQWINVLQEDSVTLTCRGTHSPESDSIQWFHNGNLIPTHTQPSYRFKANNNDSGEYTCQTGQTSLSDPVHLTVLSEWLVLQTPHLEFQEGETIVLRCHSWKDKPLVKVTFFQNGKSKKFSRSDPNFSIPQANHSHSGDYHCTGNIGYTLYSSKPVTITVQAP

[4] = target: FcγRIIIA (CD16A), F158 allotype (human) (UniProt P08637); test: BIAcore
[5] = target: FcγRIIA (CD32A), H131 allotype (human) (UniProt P12318); test: BIAcore
Sequence of FcγRIIA (CD32A), H131 allotype (human) (P12318 34-217 limits assumed): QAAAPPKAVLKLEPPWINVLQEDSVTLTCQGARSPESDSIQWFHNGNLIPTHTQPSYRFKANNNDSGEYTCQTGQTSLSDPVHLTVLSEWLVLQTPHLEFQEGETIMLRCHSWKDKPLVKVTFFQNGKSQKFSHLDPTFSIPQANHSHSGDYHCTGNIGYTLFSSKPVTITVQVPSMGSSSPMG

[6] = target: FcγRIIIA (CD16A), V158 allotype (human) (UniProt P08637); test: BIAcore
FcγRIIB (CD32B) (human) [7] = target: FcγRIIB (CD32B) (human) (UniProt P31994); test: BIAcore
[8] = target: FcγRIIA (CD32A), H131 allotype (human) (UniProt P12318); test: not stated; human FcRs
[9] = target: FcγRIIIA (CD16A), V158 allotype (human) (UniProt P08637); test: not stated; human FcRs
FcγRIIB (CD32B) (human) [10] = target: FcγRIIB (CD32B) (human) (UniProt P31994); test: not stated; human FcRs
[11] = target: FcγRIIIA on natural killer cells of human donor PBMC (human) (UniProt P08637); test: cell-based or functional assay
Sequence of FcγRIIIA on natural killer cells of human donor PBMC (human) (P08637 17-254): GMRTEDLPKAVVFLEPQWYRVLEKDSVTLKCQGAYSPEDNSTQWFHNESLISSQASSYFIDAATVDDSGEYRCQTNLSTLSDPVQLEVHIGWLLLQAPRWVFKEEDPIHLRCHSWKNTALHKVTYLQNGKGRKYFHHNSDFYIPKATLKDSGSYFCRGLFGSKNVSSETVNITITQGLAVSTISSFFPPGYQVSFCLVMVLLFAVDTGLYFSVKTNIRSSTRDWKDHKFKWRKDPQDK

[12] = target: soluble dimeric FcγRIIB-Fc fusion protein (extracellular domain of FcγRIIB fused to hinge-CH2-CH3 of human IgG2) (human) (UniProt P31994); test: SPR (BIAcore), Fc mutant in ch4-4-20, off rate relative to wild type
Sequence of soluble dimeric FcγRIIB-Fc fusion protein (extracellular domain of FcγRIIB fused to hinge-CH2-CH3 of human IgG2) (human) (P31994 43-217): as the sequence (P31994 43-217 limits assumed) above

[13] = target: FcγRIIIA (CD16A), F158 allotype (human) (UniProt P08637); test: not stated; human FcRs

Sequence of FcγRIIIA (CD16A), V158 allotype (human) (P08637 17-208 F176V limits assumed): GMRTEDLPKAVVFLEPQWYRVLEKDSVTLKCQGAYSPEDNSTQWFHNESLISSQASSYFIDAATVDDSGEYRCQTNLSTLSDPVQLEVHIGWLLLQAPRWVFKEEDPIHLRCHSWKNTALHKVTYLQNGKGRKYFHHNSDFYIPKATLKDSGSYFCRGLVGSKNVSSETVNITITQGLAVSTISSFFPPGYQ
Sequence of FcγRIIIA (CD16A), F158 allotype (human) (P08637 17-208 limits assumed): as the sequence (P08637 17-208 F176V limits assumed) above, with V160F counted along it

| Koff WT/Koff mutant [1] | Koff WT/Koff mutant [2] | Koff WT/Koff mutant (FcγRIIB (CD32B) (human) [3]) | Koff WT/Koff mutant [4] | Koff WT/Koff mutant [5] | Koff WT/Koff mutant [6] | Koff WT/Koff mutant (FcγRIIB (CD32B) (human) [7]) | Substance | also measured |
| --- | --- | --- | --- | --- | --- | --- | --- | --- |
| 1.9 | 1.85 | 0.92 | 1.9 | 1.5 | 1.85 | 0.92 | immunoglobulin with Fc variant R292P, V305I, P396L (antibody) | – |
| – | – | – | – | – | – | – | immunoglobulin with Fc variant P247L, D270E, N421K (antibody) | fold change vs wild-type affinity [8]: 1 fold; fold change vs wild-type affinity [9]: 0.9 fold; fold change vs wild-type affinity (FcγRIIB (CD32B) (human) [10]): -0.7 fold |
| 1.64 | 1.75 | 0.38 | 1.64 | 1.44 | 1.75 | 0.38 | immunoglobulin with Fc variant F243L, R255L, D270E, P396L (antibody) | – |
| – | 1.54 | 0.25 | – | 0.14 | 1.54 | 0.25 | immunoglobulin with Fc variant R292G (antibody) | – |
| 1.39 | 1.09 | 2.22 | 1.39 | 1.34 | 1.09 | 2.22 | immunoglobulin with Fc variant R255L, P396L (antibody) | – |
| 1.71 | 1.89 | 0.17 | 1.71 | 0.39 | 1.89 | 0.17 | immunoglobulin with Fc variant F243L, P247L, N421K (antibody) | – |
| 1.28 and 2.11 | 1.32 and 1.59 | – | 2.11 and 1.28 | 1.56 and 0.75 | 1.59 and 1.32 | – | immunoglobulin with Fc variant R292P, V305I (antibody) | – |
| – | – | – | – | – | – | – | ch4-4-20 MgFc55 (R255L, P396L) (antibody) | Relative rate of lysis (ADCC, vs wild type ch4-4-20) [11]: 2.79 |
| 1.74 | 1.52 | 0.87 | 1.74 | 2.6 | 1.52 | 0.87 | immunoglobulin with Fc variant R255L, D270E, Y300L, P396L (antibody) | – |
| – | 1.64 | 0.68 | – | 1.7 | 1.64 | 0.68 | immunoglobulin with Fc variant D270E, P396L, Q419H (antibody) | – |
| – | – | – | – | – | – | – | ch4-4-20 MgFc65 (N276Y) (antibody) | Koff WT/Mut [12]: 0.64 |
| – | – | – | – | – | – | – | ch4-4-20 MgFc44 (K334N, P396L) (antibody) | Relative rate of lysis (ADCC, vs wild type ch4-4-20) [11]: 2.43 |
| 3.45 | 2.3 | 0.32 | 3.45 | 0.98 | 2.3 | 0.32 | immunoglobulin with Fc variant F243L, P247L, D270E, N421K (antibody) | – |
| – | – | – | – | – | – | – | ch4-4-20 MgFc61 (A330V) (antibody) | Koff WT/Mut [12]: 0.61 |
| – | – | – | – | – | – | – | ch4-4-20 MgFc62 (R292G) (antibody) | Koff WT/Mut [12]: 0.67 |
| – | – | 0.65 | – | 1.05 | – | 0.65 | immunoglobulin with Fc variant R255L, D270E, R292G, P396L (antibody) | – |
| – | – | – | – | – | – | – | ch4-4-20 MgFc64 (E233G) (antibody) | Koff WT/Mut [12]: 0.54 |
| – | – | – | – | – | – | – | immunoglobulin with Fc variant R292P (antibody) | fold change vs wild-type affinity [13]: 0.6 fold; fold change vs wild-type affinity [8]: -0.5 fold; fold change vs wild-type affinity (FcγRIIB (CD32B) (human) [10]): -2.7 fold |
| – | – | – | – | – | – | – | ch4-4-20 MgFc42 (D221E, D270E, V308A, Q311H, P396L, G402D) (antibody) | Relative rate of lysis (ADCC, vs wild type ch4-4-20) [11]: 3.17 |
| – | – | – | – | – | – | – | immunoglobulin with Fc variant S239D, A330L, I332E (control XmAb) (antibody) | fold change vs wild-type affinity [13]: 8.1 fold; fold change vs wild-type affinity [8]: 0 fold; fold change vs wild-type affinity [9]: 13.9 fold; fold change vs wild-type affinity (FcγRIIB (CD32B) (human) [10]): 0.74 fold |
| – | – | – | 1.16 | 1.84 | 2.44 | 0.8 | immunoglobulin with Fc variant P247L, D270E, Y300L, N421K (antibody) | – |
| – | – | – | – | – | – | – | ch4-4-20 MgFc60 (P217S, P396L) (antibody) | Relative rate of lysis (ADCC, vs wild type ch4-4-20) [11]: 1.44 |
| – | – | – | – | – | – | – | ch4-4-20 MgFc50 (P247S, P396L) (antibody) | Relative rate of lysis (ADCC, vs wild type ch4-4-20) [11]: 2.1 |

| Koff WT/Koff mutant [1] | Koff WT/Koff mutant [2] | Koff WT/Koff mutant (FcγRIIB (CD32B) (human) [3]) | Koff WT/Koff mutant [4] | Koff WT/Koff mutant [5] | Koff WT/Koff mutant [6] | Koff WT/Koff mutant (FcγRIIB (CD32B) (human) [7]) | Substance | also measured |
| --- | --- | --- | --- | --- | --- | --- | --- | --- |
| – | – | – | – | – | – | – | immunoglobulin with Fc variant F243L, R292P, V305I, P396L (antibody) | fold change vs wild-type affinity [8]: -0.3 fold; fold change vs wild-type affinity [9]: -3 fold; fold change vs wild-type affinity (FcγRIIB (CD32B) (human) [10]): -1.6 fold |
| 1.19 | 1.19 | 1.33 | 1.19 | 0.63 | 1.19 | 1.33 | immunoglobulin with Fc variant P396L, Q419H (antibody) | – |
| – | – | – | – | – | – | – | ch4-4-20 MgFc54 (F243L, V305I, A378D, F404S, P396L) (antibody) | Relative rate of lysis (ADCC, vs wild type ch4-4-20) [11]: 3.59 |
| 1.37 | 1.14 | 0.37 | 1.37 | 1.79 | 1.14 | 0.37 | immunoglobulin with Fc variant V284M, R292P, K370N (antibody) | – |
| 1.65 | 1.38 | 0.89 | 1.65 | 2.44 | 1.38 | 0.89 | immunoglobulin with Fc variant D270E, P396L (antibody) | – |
| 1.81 | 1.49 | 2.35 | 1.81 | 1.22 | 1.49 | 2.35 | immunoglobulin with Fc variant K392T, P396L (antibody) | – |
| 3.12 | – | 1.05 | 3.12 | 1.49 | – | 1.05 | immunoglobulin with Fc variant F243I, R292P, Y300L, V305I, P396L (antibody) | – |
| – | – | – | – | – | – | – | immunoglobulin with Fc variant R255L, D270E, P396L (antibody) | fold change vs wild-type affinity [13]: 0.7 fold; fold change vs wild-type affinity [9]: 0.3 fold; fold change vs wild-type affinity (FcγRIIB (CD32B) (human) [10]): -0.1 fold |
| 1.6 | 1.49 | 2.22 | 1.6 | 1.5 | 1.49 | 2.22 | immunoglobulin with Fc variant F243L, P396L (antibody) | – |
| – | – | – | – | – | – | – | immunoglobulin with Fc variant D270E, K392T, P396L (antibody) | fold change vs wild-type affinity [8]: 0.9 fold; fold change vs wild-type affinity [9]: 0.8 fold; fold change vs wild-type affinity (FcγRIIB (CD32B) (human) [10]): -0.3 fold |
| – | – | – | – | – | – | – | ch4-4-20 MgFc59 (K370E, P396L) (antibody) | Relative rate of lysis (ADCC, vs wild type ch4-4-20) [11]: 2.47 |
| – | – | – | – | – | – | – | ch4-4-20 MgFc47 (K210M, P396L) (antibody) | Relative rate of lysis (ADCC, vs wild type ch4-4-20) [11]: 2.02 |
| 2.44 | 3.16 | 0.44 | 2.44 | 1.7 | 3.16 | 0.44 | immunoglobulin with Fc variant F243L, D270E, K392T, P396L (antibody) | – |
| – | – | – | – | – | – | – | ch4-4-20 MgFc48 (V379M, P396L) (antibody) | Relative rate of lysis (ADCC, vs wild type ch4-4-20) [11]: 2.01 |
| 1.15 | 1.46 | 0.26 | 1.15 | 1.11 | 1.46 | 0.26 | immunoglobulin with Fc variant F243L, D270E, P396L, Q419H (antibody) | – |
| 1.48 | 1.25 | 0.39 | 1.48 | 2.24 | 1.25 | 0.39 | immunoglobulin with Fc variant D270E (antibody) | – |
| – | – | – | – | – | – | – | ch4-4-20 MgFc51 (Q419H, P396L) (antibody) | Relative rate of lysis (ADCC, vs wild type ch4-4-20) [11]: 2.24 |
| – | – | – | – | – | – | – | ch4-4-20 MgFc52 (V240A, P396L) (antibody) | Relative rate of lysis (ADCC, vs wild type ch4-4-20) [11]: 2.35 |
| – | – | – | – | – | – | – | ch4-4-20 MgFc57 (L242F, P396L) (antibody) | Relative rate of lysis (ADCC, vs wild type ch4-4-20) [11]: 2.4 |
| – | – | – | – | – | – | – | ch4-4-20 MgFc63 (S298N, K360R, N361D) (antibody) | Koff WT/Mut [12]: 0.67 |
| – | – | – | – | – | – | – | ch4-4-20 MgFc46 (P217S, P396L) (antibody) | Relative rate of lysis (ADCC, vs wild type ch4-4-20) [11]: 2.04 |
| 1.34 | 1.5 | 0.2 | 1.34 | 1.22 | 1.5 | 0.2 | immunoglobulin with Fc variant F243L, D270E, G316D, R416G (antibody) | – |
